From the nanobody polyreactivity screen of Harvey et al. (2022)

Assay: yeast display, Sf9 membrane polyspecificity reagent, FACS + sequencing; frameworks hold sequencing errors
Summary of the method: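 A synthetic nanobody library was expressed on Saccharomyces cerevisiae BJ5465 by galactose induction for 36–48 hours. The library was stained for 1 hour at 4 °C with 10% biotinylated, detergent-solubilized Sf9 membrane reagent and enriched with streptavidin microbeads before FACS. Low and high (top ~1%) gates were set on anti-HA fluorescence for expression and streptavidin fluorescence for reagent binding, and each polyreactivity label reflects the gate of origin.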

## QVQLVESGGGLVQAGGSLRLSCAASGSIFDSNAMGRYRQAPGKERELVAAISLSGGSTYYADSVKGRFTISRDNAKNTVYLQMNSLKPVDTAVYYCAKDGWYEYYWGQGTQVTVSS
  polyreactivity (PSR sort gate): low polyreactivity

## QVQLVESGGGLVQAGGSLRLSCAASRSIFYRYAMGWYRQEPGKERELVAAISRSGGTTYYADSVKGRFTISRDNAKNTVYLQMNSQKPEDTAVYYCAARVFHPYSTDPFYYWGQGTQVTVSS
  polyreactivity (PSR sort gate): high polyreactivity

## QVQLVESGGGLVQAGGSLRLSCAASGIILPVYAMGWYRQAPGKERELVAAIRWCSGRTYYADSVKGRFTISRDNAKNTVFLQMNSLKPEDTAVYYCAKDGGQRKYDYWGQGTQVTVSS
  polyreactivity (PSR sort gate): low polyreactivity

## QVQLVESGGGLVQAGGSLRLSCAASGSTFVGYAMGWYRQAPGKEREFVAAITRGGSTNYADSVKGRFTISRDNAKNTVYLQMNSLKPEDTAVYYCAARDRREGFNFDYWGQGTQVTVSS
  polyreactivity (PSR sort gate): low polyreactivity

## QVQLVESGGGLVQAGGSLRLSCAASGSTFGWYAMGWYRQAPGKERELVASITWDGGRTYYADSVKGRFTISRDNAKNTVYLLMNSLKPEDTAVYYCAARGVSSPLNYWGQGTQVTVSS
  polyreactivity (PSR sort gate): low polyreactivity

## QVQLVESGGGLVQAGGSLRLSCAASGLTFHRYAMGWYRQAPGKERELVAAINYSGGRTYYADSVKGRFTISRDNAKNTVYLQMNSLKPEDTAVYYCNKCYVYHPGSLEYGYWGQGTQVTVSS
  polyreactivity (PSR sort gate): high polyreactivity

## QVQLVESGGGLVQAGGSLRLTCAASGSTYYSYAMGWYRQATGKERELVAAITSRGDRTYYADSVQGRFTISRDNAKNTVYLQMNSLKPEDTAVYYCAAEQSWQGYAYYYCGQGTQVTVSS
  polyreactivity (PSR sort gate): high polyreactivity

## QVQLVESGGGLVQAGGSLRLSCAASGSTFVDKAMGWYRQAPGKERELVATISSGGSTYYADSVKGRFTISRDNAKNTVYLQMNSLKPEDTAVYYCNADGNKRYPWVDYWGQGTQVTVSS
  polyreactivity (PSR sort gate): low polyreactivity

## QVQLVESGGGLVQAGGSLRLSCAASGRIFGYYGMGWYRQAPGNERELVAAITYRGGSTYYADSVKGRFTISRDNAKNTVYLQMNSLKPEDTVVYYCGADGYSNYRYLYDYWGQGTQVTVSS
  polyreactivity (PSR sort gate): low polyreactivity

## QVQLVDSGGGLVQAGGSLRLSCAASGSIFPGNPMGWYRQAPGKERELVAVIDFSGASTYYADSVKGRFTISRDNAKNTVYFQMNSLKPEDTADYWGQCTQVTVSS
  polyreactivity (PSR sort gate): low polyreactivity

## QVQLVESGGGLVQAGGSLRLSCAASGSTFVFYAMGWYRPAPGKERELVASISFRGGSTRYADSVKGRFTISRDNAKNTVYLHMNSLKPEDTAVYYCNARPFYRYYYWGQGTQVTVSS
  polyreactivity (PSR sort gate): high polyreactivity

## QVQLVESGGGLVQAGGSLRLSCAASGYTFKAYAMGWYRQAPGKERELVGGISRSGGSTYYADSVKGRFTISRDNAKNTVYLQMNSLKPEDTAVYYCAADSFSWETVVPSVFEFDYWGQGTQGTVSS
  polyreactivity (PSR sort gate): low polyreactivity

## QVQLQESGGGLVQAGGSLRLSCAASGTISPLPAMGWYRQAPGKEREFVAGIDTGAITNYADSVKGRFTISRDNAKNTVYLQMNSLIAEDTAVYYCAVFPAAYDYYERYYTYWGQGTQVTVSS
  polyreactivity (PSR sort gate): low polyreactivity

## QVQLVESGGGLVQAGGSLRLSCAASGLSFSVYAMGWYRQAPGKERELVAAITRNGGSTYYADSVKGRFTISRDTAKNTVYLQMNSLKPEDSAVYYCAAVASSKLYDYWGQGTQVTVSS
  polyreactivity (PSR sort gate): low polyreactivity

## QVQLVESGGGLVQAGGSLRLSCAASGGIFFSYAMGWYRQAPGKERELVAAIRTNGGTTYYADSVKGRFTISRDNAKNTVYLQMNSLKPEDTAVYYCAAKQFSVTLSNYWGQGTQVTVSS
  polyreactivity (PSR sort gate): low polyreactivity

## QVQLVESGGGLVQAGGSLRLSCAASGSTFHPNGMGWYRQAPGQEREFVAAIRRSGGSTYYADSVKGRFTISRDNAKNTVYLQMNSLKPEDTAVYYCAAKHYYYSPYVRYDPPPGYYWGQGTQVTVSS
  polyreactivity (PSR sort gate): high polyreactivity

## QVHVVESGGGLVQAGGSLRLSCAASGRTFYGYAMGWYRQAPGKERELVAGITSGGNTNYADSVKGRFTISRDNAKNTVYLQMNSLKPEDTAVYYCAADRYSFRGDYYWGQGTQVTVSS
  polyreactivity (PSR sort gate): low polyreactivity

## QLQLVESGGGLVQAGGSLRLSCAASGLTFSYYAMGSYRQAPGKERELVAAITSSGGNTYYADSVKGRFTISRDNANNTVYLQMNSMKPEDTAVYYCAAERYQSFCYGKRPRRPRYDYWGLGTQVTVSS
  polyreactivity (PSR sort gate): high polyreactivity

## QVQLVESGGGLVQAGGSLRLSCAASGSTFQTYAMGWYRQAPGKERELVAAITSGGSTNYADSVKGRFTISRDNAKNTVYLQMNSLKPEDTAVYYCAVRQIYQTSDHRLQYDYWGQGTQVTVSS
  polyreactivity (PSR sort gate): low polyreactivity

## QVQLVESGGGLVQAGGSLRLSCAASGFTFGRYAMGWYRQAPGKERELVASITSGGSTYYADSVKGRFTISRDNAKNTVYLQMNSLKPEDTAVYYCAAEWRWWGGYYYWGQGTQVTVSS
  polyreactivity (PSR sort gate): high polyreactivity

## QVQLVESGGGLVQAGGSLRLSCAASGRIFGRNTMGWYRKAPGKERELVASIRSGGRTYYADSVKGRFTISRDNAKNTVYLEMNSLKPEDTAVYYCAADNRKSSSSGYDYWGQGTQVTVSS
  polyreactivity (PSR sort gate): low polyreactivity

## QVQLEESGGGLVQAGGSLRLSCAASGSIFRSNAMGWYRQAPGKERELVAAISSSGGSTYYADSVKGRFTISRDKAKNTVYLQMNSLKPEDTAVYYCAARPSGRGYYLLGYWGQGTQVTVSS
  polyreactivity (PSR sort gate): low polyreactivity

## QVQVVESGGGLVQAGGSLRLSCAASGRTSGNYAMGWYRQAPGKERELVAAIRYSGSSTFYADSVKGRFTISRDNAKHTVYLQMNSLKPEDTAVYYCARDIRRKGFRYDYWGQGTQVTVSS
  polyreactivity (PSR sort gate): high polyreactivity

## QVQLVESGGGLVQAGGSLRLSCAASGSIFWSNAMGWYRPATGKERELVAAISSGGSTYADSVKGRFTISRDNAKNTVYLQMNSLKPVDTAVYYCNADVLYGDYYRGGYWGQGTQVTVSS
  polyreactivity (PSR sort gate): low polyreactivity

## QVQLVESGGGLVQAGGSLRLSCAASGSIFITNAMGWYRQAPGKERELVATITDSGGSTYYADSVKGRFTISRDNAKNTVYLQMNSLKPEDTAVYYGAKDRVYLTRVYHYDYWGQGTQVTVSS
  polyreactivity (PSR sort gate): low polyreactivity

## QVQLVESGGGLVQAGGSLRLTCAASGSIFSYYAMGWYRQAPGKERELVADISFTGDSTFYADSVKGRFTISRDNAKNTVYLQMNSLKPEDTADYYCAKDEIMAVYFEYDYWGQGTQVTVSS
  polyreactivity (PSR sort gate): low polyreactivity

## QVQLVESGGGLVQAGGSLRLSCAASGRISYYYMGWYRQAPGKERELVAAISWNGGRTYYADSVKGRFTISRDNAKNTVYLQMNSLKPEDTAVYYCAARFYSRAFWPAYYYWGQGTQVTVSS
  polyreactivity (PSR sort gate): high polyreactivity

## QVQLVESGGGLVQAGGSLRLSCAASGRTFFKYVMGWSRQAPGKERELVAAITWNGGRTNYADSVKGRFTISRDYAKNTVYLQMNSLKPEDTAVYYCAAVTSVNPSVFNGNYWGQGTQVTVSS
  polyreactivity (PSR sort gate): low polyreactivity

## QVQLVESGGGLVQAGGSLRLSCAASGSIFYRNAMGWYRQAPGKERELGAAISWSAARTYYADSVKGRFTISRDNAKNTVYLQMNSLKPEDTAVYYCAAYQTSRYKYEYWGQGTQVTVSS
  polyreactivity (PSR sort gate): high polyreactivity

## QVQLVESGGGLVQAGGSLRLSCAASGSIFTSYAMGWYRQAPGTERELVAVITSSGSSTYYADSVKGRFTISRDNAKNTVYLQMNSMKPEDTAVYYCYGYYDAYGYWGQGTQVTVSS
  polyreactivity (PSR sort gate): low polyreactivity

## QVQLVESGGGLVQAGGSLRLSCAASGIIFYYYAMGWYRQAPGKERELVAAISWSGGSTYYADSVKGRFTISRDNAKNTVYLQMNSLKPDDTAVYYCAAAFSPGWWSRHTYDYDYWGQGTQVTVSS
  polyreactivity (PSR sort gate): high polyreactivity

## QVQLVESGGGLVHGGGSLRLSCAASGSILHYNTMGWYRQAPGKEREFVASISYSGGSTYYADSVKGRFTISRDNAKNTVYLQMNSLKPEDTAVYYCATEGMDFWFIYYYWGQGTQVTVSS
  polyreactivity (PSR sort gate): low polyreactivity
